Assay results as given in paper PMC10250209, “UV-DDB stimulates the activity of SMUG1 during base excision repair of 5-hydroxymethyl-2'-deoxyuridine moieties”.
Numbering of substitutions follows the chain as printed. Blank lines part the entries; values can stand above or below the molecule they belong to.

Experiments:
[1] = biological target: T1, SMUG1 WT (UniProt Q53HV7); test: single-molecule DNA tightrope; conditions: tetrahydrofuran abasic site every 2 kb, EMSA: 8 nM DNA, 20 mM HEPES pH 7.5, 150 mM NaCl, 2 mM DTT (5 mM for SMUG1), 5% glycerol, 0.5 mg/ml BSA (0.5 mg/l [sic] for SMUG1), +/- 1.5 mM MgCl2, RT 20 min
T1 sequence: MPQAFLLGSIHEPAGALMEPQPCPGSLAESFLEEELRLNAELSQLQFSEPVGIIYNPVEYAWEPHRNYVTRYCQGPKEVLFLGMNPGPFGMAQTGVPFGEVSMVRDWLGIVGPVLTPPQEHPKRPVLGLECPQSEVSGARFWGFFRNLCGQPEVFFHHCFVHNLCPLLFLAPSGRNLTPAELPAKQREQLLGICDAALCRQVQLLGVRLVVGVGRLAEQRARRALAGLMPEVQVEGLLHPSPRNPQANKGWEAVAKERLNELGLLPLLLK

[2] = biological target: T1, SMUG1 WT; test: EMSA; conditions: apparent Kd; abasic substrate taken as THF37; tetrahydrofuran abasic analog (Z, written N) at position 20 of top strand, opposite T; EMSA: 8 nM DNA, 20 mM HEPES pH 7.5, 150 mM NaCl, 2 mM DTT (5 mM for SMUG1), 5% glycerol, 0.5 mg/ml BSA (0.5 mg/l [sic] for SMUG1), +/- 1.5 mM MgCl2, RT 20 min
[3] = biological target: single-strand selective monofunctional DNA glycosylase (SMUG1), His-tagged (UniProt Q53HV7); test: single-molecule DNA tightrope assay, dual-colour Qdot co-localisation; 605 Qdot-labelled His-SMUG1 (2.6 nM) injected first, then 705 Qdot-labelled Flag-UV-DDB (3.1 nM), on DNA tightropes with one abasic (THF) site every 2 kb; 25 mM HEPES pH 7.5, 150 mM NaCl, 0.1 mg/ml BSA, 50 nM biotin, 1 mM DTT; RT
[4] = biological target: T2, UV-DDB (DDB1-DDB2 heterodimer) (UniProt Q16531;Q92466 1-1140;1-427); test: EMSA; 1.5 mM Mg2+; EMSA: 8 nM DNA, 20 mM HEPES pH 7.5, 150 mM NaCl, 2 mM DTT (5 mM for SMUG1), 5% glycerol, 0.5 mg/ml BSA (0.5 mg/l [sic] for SMUG1), +/- 1.5 mM MgCl2, RT 20 min (30 min for displacement); 5% native gel, 1/2x TBE, 4 C; conditions: protein: recombinant, tags: DDB1-6xHis, DDB2-Flag, copies: 1;1, label: 3'-6FAM on top strand, blunt
[5] = biological target: T2, UV-DDB (DDB1-DDB2 heterodimer); test: EMSA; no Mg2+; EMSA: 8 nM DNA, 20 mM HEPES pH 7.5, 150 mM NaCl, 2 mM DTT (5 mM for SMUG1), 5% glycerol, 0.5 mg/ml BSA (0.5 mg/l [sic] for SMUG1), +/- 1.5 mM MgCl2, RT 20 min (30 min for displacement); 5% native gel, 1/2x TBE, 4 C; conditions: protein: recombinant, tags: DDB1-6xHis, DDB2-Flag, copies: 1;1, label: 3'-6FAM on top strand, blunt

T2 sequence (Q16531 whole entry, chain 1 of 2): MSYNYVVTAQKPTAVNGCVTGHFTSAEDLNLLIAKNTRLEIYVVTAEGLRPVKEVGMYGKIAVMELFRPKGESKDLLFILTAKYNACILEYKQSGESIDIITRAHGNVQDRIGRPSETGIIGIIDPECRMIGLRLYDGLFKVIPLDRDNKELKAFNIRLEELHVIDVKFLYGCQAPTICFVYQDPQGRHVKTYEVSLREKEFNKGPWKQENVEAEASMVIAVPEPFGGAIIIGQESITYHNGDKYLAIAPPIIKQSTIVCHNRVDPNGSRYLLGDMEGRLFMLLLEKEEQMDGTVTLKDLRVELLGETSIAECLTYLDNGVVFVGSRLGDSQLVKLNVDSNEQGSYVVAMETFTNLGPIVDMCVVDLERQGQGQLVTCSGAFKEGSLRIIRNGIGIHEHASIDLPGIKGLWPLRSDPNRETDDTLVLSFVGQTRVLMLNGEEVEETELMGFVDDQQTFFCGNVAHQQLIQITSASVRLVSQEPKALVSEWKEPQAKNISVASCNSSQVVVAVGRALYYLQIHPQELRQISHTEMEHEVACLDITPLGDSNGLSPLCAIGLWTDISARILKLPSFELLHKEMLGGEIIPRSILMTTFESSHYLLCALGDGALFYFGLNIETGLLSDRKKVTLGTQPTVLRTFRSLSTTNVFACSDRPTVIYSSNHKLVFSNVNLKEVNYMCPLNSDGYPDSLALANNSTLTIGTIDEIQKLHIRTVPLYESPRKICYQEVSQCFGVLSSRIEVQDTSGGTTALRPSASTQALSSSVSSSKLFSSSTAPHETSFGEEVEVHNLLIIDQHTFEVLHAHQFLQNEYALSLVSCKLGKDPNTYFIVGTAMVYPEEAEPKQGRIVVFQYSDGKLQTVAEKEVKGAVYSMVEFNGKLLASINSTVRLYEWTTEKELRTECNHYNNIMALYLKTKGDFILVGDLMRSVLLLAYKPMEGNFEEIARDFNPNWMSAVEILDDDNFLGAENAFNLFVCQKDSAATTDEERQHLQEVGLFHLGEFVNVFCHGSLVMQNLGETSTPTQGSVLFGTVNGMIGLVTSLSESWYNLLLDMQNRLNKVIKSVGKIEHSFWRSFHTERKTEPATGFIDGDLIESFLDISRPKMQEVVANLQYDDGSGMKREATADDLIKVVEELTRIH
T2 sequence (Q92466 whole entry, chain 2 of 2): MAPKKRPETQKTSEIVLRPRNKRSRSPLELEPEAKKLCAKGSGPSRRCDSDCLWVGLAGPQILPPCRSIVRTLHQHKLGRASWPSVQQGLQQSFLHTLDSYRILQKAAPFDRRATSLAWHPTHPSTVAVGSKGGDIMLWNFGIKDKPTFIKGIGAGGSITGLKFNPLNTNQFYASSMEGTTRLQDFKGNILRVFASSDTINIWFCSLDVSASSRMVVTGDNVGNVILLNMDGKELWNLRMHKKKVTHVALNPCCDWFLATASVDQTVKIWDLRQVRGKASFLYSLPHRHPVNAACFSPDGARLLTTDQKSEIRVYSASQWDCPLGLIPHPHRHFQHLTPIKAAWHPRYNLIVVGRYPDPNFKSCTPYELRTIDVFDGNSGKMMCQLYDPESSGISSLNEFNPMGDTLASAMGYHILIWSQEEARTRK

Molecule: DNA tightrope with one THF site every 2 kb
binding ([1]; bound half-life with equimolar unlabeled UV-DDB, Qdot-labeled SMUG1): 580 s
binding ([1]; bound half-life, SMUG1 alone, Qdot-labeled): 4950 s

Molecule: CCGAGTCATTCCTGCAGCGNGTCCATGGGAGTCAAAT / ATTTGACTCCCATGGACTCGCTGCAGGAATGACTCGG [THF37]
Kd [2]: 65 nM

percent of all particles co-localised on abasic DNA [3]: 15.6%
Molecule: UV-damaged DNA-binding protein (UV-DDB), DDB1-6xHis/DDB2-Flag heterodimer (from UniProt Q16531 1-1140; Q92466 1-427) (complex)

B1: dU:dA37 (dsDNA)
DNA 1: CCGAGTCATTCCTGCAGCGAGUCCATGGGAGTCAAAT
DNA 2: ATTTGACTCCCATGGACTCGCTGCAGGAATGACTCGG
modifications: dU at position 22 of top strand, opposite dA
Kd [4]: 52 ± 3.4 nM
Kd [5]: 15 ± 1 nM

B2: 5-hmdU:dG37 (dsDNA)
DNA 1: B1 DNA 1
DNA 2: B1 DNA 2 with A16G
modifications: 5-hydroxymethyl-dU (X, written U) at position 22 of top strand, opposite dG
Kd ([4]; 5-hmdU:G mispair): 27 ± 1.9 nM
Kd ([5]; 5-hmdU:G mispair): 16 ± 1.5 nM

B3: UD37 (undamaged) (dsDNA)
DNA 1: B1 DNA 1 with U22T
DNA 2: B1 DNA 2
Kd [4]: 125 ± 9.1 nM
Kd [5]: 31 ± 2 nM

B4: 5-hmdU:dA37 (dsDNA)
DNA 1: B1 DNA 1
DNA 2: B1 DNA 2
modifications: 5-hydroxymethyl-dU (X, written U) at position 22 of top strand, opposite dA
Kd [4]: 48 ± 3 nM
Kd [5]: 14 ± 1.1 nM

B5: dU:dG37 (dsDNA)
DNA 1: B1 DNA 1
DNA 2: B1 DNA 2 with A16G
modifications: dU at position 22 of top strand, opposite dG
Kd ([4]; U:G mispair): 21 ± 2.1 nM
Kd ([5]; U:G mispair): 18 ± 1.6 nM
